Reference: US5756665A, “Peptide isolated from micrococcus varians and use thereof” (priority 1995, dated 1998)

How the values were obtained:
Type in all cases: cell-based
[1] = test system: strain Lactococcus lactis which produces lacticin 481; test: Inhibition spectrum test on the lacticin 481 producer
[2] = test system: Lactobacillus helveticus (N 2); test: Inactivation by enzymes, agar well test
[3] = test system: Lactobacillus helveticus (N 2); test: Resistance to pH, agar well test; settings: pH 2 to 10
[4] = test system: Lactobacillus helveticus (N 2); test: Resistance to heat, agar well test; settings: 60 min incubation at 100 °C
[5] = test system: Lactobacillus helveticus (N 2); test: Resistance to heat and to pH, agar well test; settings: pH 4 or 7 combined with elevated temperature
Gram-negative bacteria = test: Inhibition spectrum, summary for Gram-negative bacteria; settings: summary of Table V
Text: The inhibition spectrum of the supernatant is thus determined.

| Substance | growth of the lacticin 481-producing strain in the presence of the bacteriocin [1] | influence of catalase on bactericidal activity ([2]; Tables I and II, two indicator strains) | effect of proteolytic enzymes on bactericidal activity ([2]; all proteolytic enzymes of Tables I and II) | pH dependence of bactericidal activity [3] | bactericidal activity after heat [4] | bactericidal activity after heat and pH [5] | inhibitory effect on the growth of Gram-negative bacteria (Gram-negative bacteria) |
| --- | --- | --- | --- | --- | --- | --- | --- |
| lacticin 481 | immune |  |  |  |  |  |  |
| variacin: bacteriocin from Micrococcus varians strains CNCM I-1586 and CNCM I-1587, amino acid sequence SEQ ID NO:1, 2659 daltons (GSGVIPTISHECHMNSFQFVFTCCS) |  | not found to exert any influence | suppress the bactericidal activity | not pH-dependent | not compromised | not compromised | does not exert any inhibitory effect |
